From the Human Domainome abundance scans (Beltran et al. 2025)

B1: Intersectin-1, residues 1156 to 1213; numbered along this chain, Q15811 (parent)
chain: AVCQVIGMYDYTAQNDDELAFNKGQIINVLNKEDPDWWKGEVNGQVGLFPSNYVKLTT
B2: SH3 and PX domain-containing protein 2B, residues 155 to 209; numbered along this chain, A1X283 (parent)
chain: EQYVVVANYQKQESSEISLSVGQVVDIIEKNESGWWFVSTAEEQGWVPATCLEGQ

Variants of: B1
Experiment: abundance fitness (aPCA) (normalised: wild type 0, dead -1); higher = more abundant; growth selection in yeast, the domain comes from the species named
Conditions: Homo sapiens

Abundance fitness of substitutions, site by site:
A1: T -0.213 | D -0.322 | R -0.1 | E -0.082 | V -0.068 | S 0.127
M8: I 0.542 | Y -0.472 | T -0.002 | W -0.3 | D -0.67 | P -0.914 | L 0.333 | N -0.576 | A 0.209 | H -0.167 | S -0.233 | F -0.286 | G -0.51 | E 0.541 | Q 0.31 | R 0.145 | C -0.02
I6: R -0.446 | E -0.013 | V 0.159 | K -0.269 | W -0.688 | Y -0.548 | Q -0.156 | G -0.64 | D -0.922 | A -0.639 | M -0.092 | L -0.47 | C -0.386 | F -0.619 | T -0.388 | S -0.655 | N -0.765
V2: R -0.003 | H -0.105 | A -0.492 | D -0.142 | Q -0.466 | N -0.223 | M -0.205 | G -0.115 | T -0.187 | F -0.268 | L -0.375 | E -0.074 | K -0.06 | S -0.233 | Y -0.264 | W -0.384 | C -0.357 | P -0.222
C3: P -0.901 | R -0.555 | K -0.597 | Q -0.606 | Y -0.184 | H -0.706 | L -0.387 | S -0.452 | N -0.252 | W -0.449 | V -0.374 | D -0.033 | F -0.155 | A -0.463 | M -0.094 | G -0.308 | T -0.123
Q4: I -0.391 | W -0.451 | H -0.373 | Y -0.487 | S -0.277 | V -0.488 | D -1.15 | R -0.354 | A -0.826 | P -0.817 | T -0.207 | F -0.719 | M -0.527 | G -0.6 | K -0.236 | L -0.538 | C -0.57 | E -0.629
G7: Q -0.893 | A 0.54 | N -1.15 | S 0.309 | K -0.772 | V -0.551 | C 0.176 | L -0.618 | D -0.721 | W -0.775 | P -0.519 | M -0.681 | H -0.466 | Y -1.13 | F -0.739 | R -0.849
V5: E -0.843 | Q -0.673 | A -0.045 | S -0.813 | N -0.902 | H -0.644 | I -0.823 | R -0.831 | Y -0.309 | T -0.526 | D -0.711 | M -0.737 | C 0.005 | W -0.574 | G -0.309 | L -0.891 | P -0.94 | K -0.708 | F -0.772
Y9: A 0.362

Variants of: B2
Experiment: as above
Conditions: Homo sapiens

Abundance fitness: each site, then its substitutions
E53: S -0.05 | I -0.289 | R -0.064 | A -0.014 | V -0.128 | C -0.14 | M -0.144 | K -0.004 | Q 0.027 | W -0.477 | D -0.073 | G -0.008 | L -0.2 | H -0.138 | T -0.018 | Y -0.252 | F -0.33
E43: Y -0.221 | V -0.093 | W -0.31 | S 0.033 | T -0.033
V47: L -0.319 | H -0.967 | Y -0.45 | F -0.229 | N -1.05 | I 0.11 | S -0.567 | R -0.72 | W -1.11 | P -0.922 | M -0.453 | E -0.776 | G -0.493 | K -0.929 | D -1.1 | A -0.106 | T -0.552 | C 0.001
Q55: L -0.138 | R 0.054 | I -0.099 | M -0.233 | E -0.341 | W -0.329 | P 0.045 | N -0.551 | D -0.034 | S -0.133 | T -0.07 | Y -0.267 | H -0.004 | G -0.229 | V -0.44
P48: S -0.544 | V -0.79 | R -0.306 | I -0.956 | D -0.252 | A -0.626 | H -0.455 | T -0.888 | L -0.455 | G -1 | Q -0.568 | E -0.522 | W -0.835 | Y -1.03 | K -0.334 | C -0.614 | M -0.76 | N -0.492 | F -0.998
W46: I -0.299 | Q -0.37 | G -1.08 | T -0.437 | E -0.91 | A -0.599 | M -0.039 | C -0.233 | D -0.652 | F -0.036 | Y -0.051 | K -0.273 | R -0.17
L52: T -1.22 | R -0.835 | H -0.773 | C -0.227 | Y -1.07 | W -0.775 | E -1.1 | D -0.942 | K -0.647 | Q -1.05 | N -1.05 | P -0.826 | V -0.049 | M -0.168 | F -0.083
T50: C -0.144 | Q -0.161 | E -0.096 | D -0.093 | A -0.052 | H -0.299 | L -0.125 | R -0.023 | Y -0.095 | K 0.09 | S -0.046 | N -0.159 | M -0.243 | F -0.337 | W 0.049 | G 0.001 | P -0.134
G45: I -0.643 | E -1.21 | A -0.604 | M -0.632 | N -0.95 | S -0.965 | D -0.964 | K -0.547 | C -0.779 | R -0.723 | Q -0.734 | P -1.19 | T -0.683 | V -0.7 | F -0.744 | L -0.444 | W -0.919 | H -0.815
C51: V -0.107 | D -0.737 | Y -0.271 | W -0.596 | G -0.711 | Q -0.349 | T -0.222 | E -0.944 | A -0.12 | K -0.245 | P -0.959 | M -0.787 | L -0.267 | R -0.343 | H -0.322 | F -0.212 | S -0.219
Q44: V -0.225 | H -0.085 | K -0.106 | M -0.122 | I -0.208 | P -0.807 | A -0.187 | F -0.207 | L -0.337 | D -0.14 | C -0.216 | Y -0.376 | E -0.143 | T -0.101 | G -0.151 | S -0.136 | R 0.001
A49: V -0.207 | N 0.02 | H 0.118 | C 0.045 | P -0.105 | G -0.016 | K -0.053 | D -0.214 | Q -0.327 | M 0.003 | Y -0.237 | R -0.146 | L -0.012 | W -0.586 | F -0.139 | T -0.191 | E -0.273
G54: Q 0.121 | D -0.144 | Y -0.042 | F -0.143 | C -0.04 | H -0.345 | R -0.019 | A 0 | V 0.008 | P -0.112 | K -0.231 | M -0.098 | I 0.079 | N 0.025 | E 0.11 | L 0.07 | T -0.069
